As usually defined, the Kd is the equilibrium constant for the complex coming apart. A word on the koff: it is a measure of how fast the partners let go of each other. Broadly, the kon is a measure of how fast the partners come together. A low value points to slow association.

The source of these data is patent US20260265358A1 (BYOMASS, published 2026).

Where “and” joins values, the source holds several entries; their conditions need not be identical. Equal entries are not always repeated.

For assay [1], the target named is T1, Human Activin A Fc (human, UniProt P03970 309-424 (pig entry)).
T1 construct: also called human Activin A-Fc fusion; human Activin A-Fc antigen; not shown: Fc part
T1 sequence: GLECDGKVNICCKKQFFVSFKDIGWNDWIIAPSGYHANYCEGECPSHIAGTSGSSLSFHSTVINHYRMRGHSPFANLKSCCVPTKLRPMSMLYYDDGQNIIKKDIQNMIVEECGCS
Nature of the assay: Octet BLI, Fab, monovalent. (In BLI a coated tip is dipped into the sample, and binding shifts an interference pattern.)

Assay [2] concerns the target T2, biotinylated Human Activin A (human, UniProt P03970 309-424 (pig entry), biotinylated (EZ-Link Sulfo-NHS-Biotinylation Kit)).
T2 sequence: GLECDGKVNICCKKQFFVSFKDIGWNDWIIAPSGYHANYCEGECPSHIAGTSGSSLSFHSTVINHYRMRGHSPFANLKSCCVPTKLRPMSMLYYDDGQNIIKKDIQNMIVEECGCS
Nature of the assay: SPR (Biacore 8K), antigen captured, Fab analyte. As for the experimental part: Kinetic analysis was conducted at 25° C. in HBS-EP+ running buffer (10 mM HEPES pH 7.4, 150 mM NaCl, 3 mM EDTA, 0.05% Surfactant P20) using a Biacore 8K optical biosensor (Cytiva, Marlborough, MA). The sample compartment was maintained at 10° C. for the duration of the experiment. The Biacore 8K can analyze up to 8 separate interactions in a single cycle.
Each experiment cycle began with an injection (300 s at 2 μL/min) overflow cells 1 and 2 of a 1:100 solution of biotin CAPture reagent (Cytiva) in running buffer. This was followed by an injection (45 s at 10.0 μL/min) of biotinylated human ACTIVIN A (5 nM) overflow cell 2. Upon capture of ACTIVIN A to the sensor surface, a single concentration of Fab ranging from 0.111-81.0 nM was injected (300 s at 30 μL/min) overflow cells 1 and 2. The dissociation of the antibodies were monitored for 3420 s. Finally, an injection (120 s at 10 μL/min) of regeneration solution (6 M Guanidine-HCl in 0.25 M NaOH) overflow cells 1 and 2 prepared the sensor surface for another cycle. Several blank buffer samples were injected (300 s at 30 μL/min) overflow cells 1 and 2 throughout the duration of the experiment and used for reference surface subtraction—each were monitored for the same amount of dissociation time (3420 s) and regenerated under the same conditions as those for the Fab sample injections.
The anti-Activin antibodies identified in Example 1 were characterized. First, binding kinetics of the anti-Activin antibodies was assessed with a Surface Plasmon Resonance assay (Biacore).
For orientation: SPR reads the build-up and loss of mass on a sensor chip optically.

B1: Fab of anti-Activin A antibody Clone M (Fab, V domains shown)
VH: QLQLQESGPGLVKPSETLSLTCTVSGGSISSSDYYWGWIRQPPGKGLEWIGSIYYPANTYYNPSLKSRVTISVDTSKNQFSLKLSSVTAADTAVYYCARGYWNYGMDVWGQGTTVTVSS
VL: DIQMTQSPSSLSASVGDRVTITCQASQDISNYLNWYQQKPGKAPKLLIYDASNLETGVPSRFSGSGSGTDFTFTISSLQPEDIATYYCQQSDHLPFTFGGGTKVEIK
notes: Fab format; only VH and VL are tied to the clone; also called Clone M Fab
B1 registered a Kd in assay [1] of 4.53 nM.

B2: Fab of anti-Activin A antibody Clone N (Fab, V domains shown)
VH: QLQLQESGPGLVKPSETLSLTCTVSGGSISSSDYYWGWIRQPPGKGLEWIGSIYYPASTYYNPSLKSRVTISVDTSKNQFSLKLSSVTAADTAVYYCARGYWNYGMDVWGQGTTVTVSS
VL: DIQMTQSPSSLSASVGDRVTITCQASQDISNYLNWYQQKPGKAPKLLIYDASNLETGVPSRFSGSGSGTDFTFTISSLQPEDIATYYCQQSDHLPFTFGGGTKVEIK
notes: Fab format; only VH and VL are tied to the clone; also called Clone N Fab
Molecule B2 had a dissociation constant Kd in assay [1] of 4.85 nM.

B3: Fab of anti-Activin A antibody Clone R (Fab, V domains shown)
VH: QVQLVQSGAEVKKPGSSVKVSCKASGGSFSPYTISWVRQAPGQGLEWMGGIILTSGTANYAQKFQGRVTITADESTSTAYMELSSLRSEDTAVYYCARGGPLSGWRASYYYWGQGTLVTVSS
VL: not shown
notes: Fab format; only VH and VL are tied to the clone; also called Clone R Fab
As for B3, in assay [1], binding was characterised by a dissociation constant (Kd) of 2.9 nM.

B4: Fab of anti-Activin A antibody Clone P (Fab, V domains shown)
VH: QVQLVQSGAEVKKPGSSVKVSCKASGGTFDDYAISWVRQAPGQGLEWMGGIIPRFGIANYAQKFQGRVTITADESTSTAYMELSSLRSEDTAVYYCARPPSSGSDWGQGTLVTVSS
VL: DIQMTQSPSSVSASVGDRVTITCRASQGIDSWLAWYQQKPGKAPKLLIYAASSLQSGVPSRFSGSGSGTDFTLTISSLQPEDFATYYCQQVHSFPITFGGGTKVEIK
notes: Fab format; only VH and VL are tied to the clone; also called Clone P Fab
For the molecule B4, in assay [1], the Kd was 1.53 nM.

B5: Fab of anti-Activin A antibody Clone C (Fab, V domains shown)
VH: QVQLVQSGAEVKKPGASVKVSCKASGYTFPGYHMHWVRQAPGQGLEWMGVINPSSGDTNYAQKFQGRVTMTRDTSISTAYMELSRLRSDDTAVYYCARARDIAALGLGAFDYWGQGTLVTVSS
VL: EIVLTQSPGTLSLSPGERATLSCRASQSVSSSYLAWYQQKPGQAPRLLIYGASSRAGGIPDRFSGSGSGTDFTLTISRLEPEDFAVYYCQQYVAYPRTFGGGTKVEIK
notes: Fab format; only VH and VL are tied to the clone; also called Fab of Clone C
Molecule B5 came in with an equilibrium dissociation constant (Kd) in assay [1] of 0.229 nM. In assay [2], the equilibrium dissociation constant (Kd) is 0.0334 nM and 0.0179 nM; the koff is 4.52e-05 s⁻¹ and 2.74e-05 s⁻¹.

B6: Fab of anti-Activin A antibody Clone I (Fab, V domains shown)
VH: QVQLVQSGAEVKKPGSSVKVSCKASGGTFSNYAISWVRQAPGQGLEWMGYIIPFFGTANYAQKFQGRVTITADESTSTAYMELSSLRSEDTAVYYCARGGSGYSTSWGSSLYWGQGTLVTVSS
VL: EIVLTQSPGTLSLSPGERATLSCRASQSVSSSYLAWYQQKPGQAPRLLIYGASYRATGIPDRFSGSGSGTDFTLTISRLEPEDFAVYYCLQSGVFPYTFGGGTKVEIK
notes: Fab format; only VH and VL are tied to the clone; also called Clone I Fab
In turn, B6 yielded a Kd in assay [1] of 0.857 nM. In assay [2], this molecule registered a Kd of 0.0616 nM, a koff of 7.38e-05 s⁻¹ and a kon of 1.2e+06 M⁻¹ s⁻¹.

B7: Fab of anti-Activin A antibody Clone G (Fab, V domains shown)
VH: QVQLVQSGAEVKKPGASVKVSCKASGYTFTSYYIHWVRQAPGQGLEWMGAIYAYSGDTNYAQKLQGRVTMTTDTSTSTAYMELRSLRSDDTAVYYCARARDIAAAGLGAFDYWGQGTLVTVSS
VL: EIVLTQSPGTLSLSPGERATLSCRASQSVRSSYLAWYQQKPGQAPRLLIYGASSRATGIPDRFSGSGSGTDFTLTISRLEPEDFAVYYCQQYSNYPRTFGGGTKVEIK
notes: Fab format; only VH and VL are tied to the clone; also called Clone G Fab
Turning to B7, in assay [1], the affinity, expressed as Kd, was 1.09 nM. In assay [2], this molecule had a Kd of 0.0849 nM, a koff of 0.000124 s⁻¹ and a kon of 1.46e+06 M⁻¹ s⁻¹.

B8: Fab of anti-Activin A antibody Clone A (Fab, V domains shown)
VH: QVQLVQSGAEVKKPGASVKVSCKASGYTFTGYYMHWVRQAPGQGLEWMGSINPSSGGTNYAQKFQGRVTMTTDTSTSTAYMELRSLRSDDTAVYYCARARDIAAAGLGAFDYWGQGTLVTVSS
VL: EIVLTQSPGTLSLSPGERATLSCRASQSVRSSYLAWYQQKPGQAPRLLIYGASSRATGIPDRFSGSGSGTDFTLTISRLEPEDFAVYYCQQYVSYPRTFGGGTKVEIK
notes: Fab format; only VH and VL are tied to the clone; also called Clone A Fab
In assay [1], B8 came in with a Kd of 2.02 nM.

B9: Fab of anti-Activin A antibody Clone J (Fab, V domains shown)
VH: EVQLVQSGAEVKKPGSSVKVSCKASGGTFSLYAISWVRQAPGQGLEWMGGIIPYFGTANYAQKFQGRVTITADESTSTAYMELSSLRSEDTAVYYCARGGSGYSTSWGSSLYWGQGTLVTVSS
VL: EIVLTQSPGTLSLSPGERATLSCRASQSVSSSYLAWYQQKPGQAPRLLIYGAFSRATGIPDRFSGSGSGTDFTLTISRLEPEDFAVYYCQQSGVFPYTFGGGTKVEIK
notes: Fab format; only VH and VL are tied to the clone; also called Clone J Fab
Regarding B9, the Kd in assay [2] is 0.118 nM.

B10: Fab of anti-Activin A antibody Clone E (Fab, V domains shown)
VH: QVQLVQSGAEVKKPGASVKVSCKASGYTFHGYNMHWVRQAPGQGLEWMGSINPYSGYTIYAQKFQGRVTMTRDTSISTAYMELSRLRSDDTAVYYCARARDIAAAGLGAFDYWGQGTLVTVSS
VL: EIVLTQSPGTLSLSPGERATLSCRASQSVRSSYLAWYQQKPGQAPRLLIYGASSRATGIPDRFSGSGSGTDFTLTISRLEPEDFAVYYCQQYVSYPRTFGGGTKVEIK
notes: Fab format; only VH and VL are tied to the clone; also called Clone E Fab
With B10, in assay [1], binding was put at a Kd of 0.79 nM. In assay [2], this molecule displayed a Kd of 0.0779 nM, a koff of 0.000174 s⁻¹ and a kon of 2.23e+06 M⁻¹ s⁻¹.

B11: Fab of anti-Activin A antibody Clone D (Fab, V domains shown)
VH: QVQLVQSGAEVKKPGASVKVSCKASGYTFFGYSMHWVRQAPGQGLEWMGVINPSSGDTNYAQKFQGRVTMTRDTSISTAYMELSRLRSDDTAVYYCARARDIAALGLGAFDYWGQGTLVTVSS
VL: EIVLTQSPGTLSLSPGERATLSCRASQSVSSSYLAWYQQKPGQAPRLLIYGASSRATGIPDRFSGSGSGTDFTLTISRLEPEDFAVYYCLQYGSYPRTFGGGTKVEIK
notes: Fab format; only VH and VL are tied to the clone; also called Fab of Clone D
B11 gave a Kd in assay [1] of 0.538 nM. In addition, in assay [2], the Kd was 0.00986 nM and 0.00813 nM; the dissociation rate constant (koff) is 3.02e-05 s⁻¹ and 2.16e-05 s⁻¹; the association rate constant (kon) was 3.06e+06 M⁻¹ s⁻¹ and 2.66e+06 M⁻¹ s⁻¹.

B12: Fab of anti-Activin A antibody Clone H (Fab, V domains shown)
VH: QVQLVQSGAEVKKPGASVKVSCKASGYTFTGYHIHWVRQAPGQGLEWMGHISAYSGTTNYAQKLQGRVTMTTDTSTSTAYMELRSLRSDDTAVYYCARARDIAAAGLGAFDYWGQGTLVTVSS
VL: EIVLTQSPGTLSLSPGERATLSCRASQSVRSSYLAWYQQKPGQAPRLLIYGASSRATGIPDRFSGSGSGTDFTLTISRLEPEDFAVYYCQQYSNYPRTFGGGTKVEIK
notes: Fab format; only VH and VL are tied to the clone; also called Clone H Fab
For B12, the Kd in assay [1] was determined as 1.86 nM. In addition, in assay [2], the Kd came to 0.96 nM, the off-rate constant (koff) worked out at 0.000371 s⁻¹ and the kon came to 386000 M⁻¹ s⁻¹.

B13: Fab of anti-Activin A antibody Clone F (Fab, V domains shown)
VH: QVQLVQSGAEVKKPGASVKVSCKASGYTFTGYHIHWVRQVPGQGLEWMGVISAYSGDTNYAQKLQGRVTMTTDTSTSTAYMELRSLRSDDTAVYYCARARDIAALGLGAFDYWGQGTLVTVSS
VL: EIVLTQSPATLSVSPGERATLSCRASQSVSSNLAWYQQKPGQAPRLLIYGASDRATGIPARFSGSGSGTEFTLTISSLQSEDFAVYYCIQYSNYPRTFGGGTKVEIK
notes: Fab format; only VH and VL are tied to the clone; also called Clone F Fab
With B13, the Kd in assay [1] came out at 0.419 nM. In assay [2], binding was put at a Kd of 0.0431 nM, the koff stood at 7.26e-05 s⁻¹ and the kon was 1.68e+06 M⁻¹ s⁻¹.

B14: Fab of anti-Activin A antibody Clone O (Fab, V domains shown)
VH: QVQLVQSGAEVKKPGSSVKVSCKASGGTFSNYDINWVRQAPGQGLEWMGGIIPVFGTAAYAQKFQGRVTITADESTSTAYMELSSLRSEDTAVYYCAREARDGYRYAFQHWGQGTLVTVSS
VL: EIVMTQSPATLSVSPGERATLSCRASQSVSSNLAWYQQKPGQAPRLLIYGASTRATGIPARFSGSGSGTEFTLTISSLQSEDFAVYYCQQYNNWPITFGGGTKVEIK
notes: Fab format; only VH and VL are tied to the clone; also called Clone O Fab
B14 yielded a Kd in assay [1] of 1.92 nM.

B15: Fab of anti-Activin A antibody Clone L (Fab, V domains shown)
VH: QVQLQESGPGLVKPSETLSLTCAVSGYSISSGYYWGWIRQPPGKGLEWIGSIYHSGSTYYNPSLKSRVTISVDTSKNQFSLKLSSVTAADTAVYYCAREAGSGYWYLSVYGMDVWGQGTTVTVSS
VL: EIVLTQSPATLSVSPGERATLSCRASQSVSSNLAWYQQKPGQAPRLLIYGASTRATGIPARFSGSGSGTEFTLTISSLQSEDFAVYYCQQSDDWPWTFGGGTKVEIK
notes: Fab format; only VH and VL are tied to the clone; also called Clone L Fab
Consider B15, for which the Kd in assay [1] came to 4.14 nM.
